Assays:
[1] = biological target: T1, Her2 extracellular domain (Her2 ECD) (human, UniProt P04626 23-652); assay: SPR (BIAcore T100), IgG, 1:1 Langmuir fit
T1 construct: For the crystal structure it was expressed in CHO cells and the complex was enzymatically deglycosylated; also called biotinylated Her2 ECD
Procedure: (§1) The affinity of each 7C2 IgG variant for Her2 was determined by surface plasmon resonance using a BIAcoreT100. Biacore Series S CMS sensor chips were immobilized with monoclonal mouse anti-human IgG (Fc) antibody (Human antibody capture kit, GE Healthcare). Serial 3-fold dilutions of each 7C2 variant were injected at a flow rate of 30 μl/min. Each sample was analyzed with 3-minute association and 10-minute dissociation. After each injection the chip was regenerated using 3 M MgCl₂. Binding response was corrected by subtracting the RU from a flow cell capturing an irrelevant IgG at similar density. A 1:1 Languir model of simultaneous fitting of kₒₙ and koff was used for kinetics analysis.

[2] = biological target: T1, Her2 extracellular domain (Her2 ECD); assay: SPR (BIAcore T100), IgG on anti-human IgG (Fc) capture chip, Her2 ECD, 1:1 Langmuir fit
Procedure: as §1

[3] = biological target: T1, Her2 extracellular domain (Her2 ECD); assay: SPR (BIAcore T100), IgG, 1:1 Langmuir fit; remark: listed apart in the source
Procedure: as §1

| Binder | Kd [2] [nM] | Kd [3] [nM] | also measured |
| --- | --- | --- | --- |
| 7C2.v2.1 (antibody, V domains shown, Expressed as IgG for SPR; also called hu7C2.v2.1) VH: EVQLVQSGAEVKKPGASVKVSCKASGYSFTGYWMNWVRQAPGQGLEWIGMIHPSDSEIRANQKFRDRVTITRDTSTSTAYLELSSLRSEDTAVYYCARGTYDGGFEYWGQGTLVTVSS VL: DIVMTQSPDSLAVSLGERATINCRASQSVSGSRFTYMHWYQQKPGQPPKLLIKYASILESGVPDRFSGSGSGTDFTLTISSLQAEDVAVYYCQHSWEIPPWTFGQGTKVEIK | 16 |  | Kd [1]: 15.5 nM; koff [1]: 0.0041 s⁻¹; kon [1]: 260000 M⁻¹ s⁻¹ |
| 7C2.v2.3 (antibody, V domains shown) VH: EVQLVQSGAEVKKPGASVKVSCKASGYSFTGYWMNWLRQAPGQGLEWIGMIHPSDSEIRANQKFRDRATLTVDKSTSTAYLELSSLRSEDTAVYYCARGTYDGGFEYWGQGTLVTVSS VL: DIVMTQSPDSLAVSLGERATINCRASQSVSGSRFTYMHWYQQKPGQPPKLLIKYASILESGVPDRFSGSGSGTDFTLTISSLQAEDVAVYYCQHSWEIPPWTFGQGTKVEIK | 10 |  |  |
| 7C2.v3.3 (antibody, V domains shown) VH: EVQLVQSGAEVKKPGASVKVSCKASGYSFTGYWMNWLRQAPGQGLEWIGMIHPSDSEIRANQKFRDRATLTVDKSTSTAYLELSSLRSEDTAVYYCARGTYDGGFEYWGQGTLVTVSS VL: DIVLTQSPDSLAVSLGERATINCRASQSVSGSRFTYMHWYQQKPGQPPKLLIKYASILESGVPDRFSGSGSGTDFTLTISSLQAEDVAVYYCQHSWEIPPWTFGQGTKVEIK | 9 |  |  |
| 7C2.v1.3 (antibody, V domains shown) VH: EVQLVQSGAEVKKPGASVKVSCKASGYSFTGYWMNWLRQAPGQGLEWIGMIHPSDSEIRANQKFRDRATLTVDKSTSTAYLELSSLRSEDTAVYYCARGTYDGGFEYWGQGTLVTVSS VL: DIVMTQSPDSLAVSLGERATINCRASQSVSGSRFTYMHWYQQKPGQPPKLLIYYASILESGVPDRFSGSGSGTDFTLTISSLQAEDVAVYYCQHSWEIPPWTFGQGTKVEIK | 11 |  |  |
| 7C2.v1.2 (antibody, V domains shown) VH: EVQLVQSGAEVKKPGASVKVSCKASGYSFTGYWMNWVRQAPGQGLEWIGMIHPSDSEIRANQKFRDRVTITVDTSTSTAYLELSSLRSEDTAVYYCARGTYDGGFEYWGQGTLVTVSS VL: DIVMTQSPDSLAVSLGERATINCRASQSVSGSRFTYMHWYQQKPGQPPKLLIYYASILESGVPDRFSGSGSGTDFTLTISSLQAEDVAVYYCQHSWEIPPWTFGQGTKVEIK | 13 |  |  |
| hu7C2.v2.2.LA (antibody, human IgG1, kappa, V domains shown, IgG1 kappa; Measured as IgG by SPR; also called humanized 7C2.v2.2.LA; hu7C2.v2.2.LA (S53L, S55A)) VH: EVQLVQSGAEVKKPGASVKVSCKASGYSFTGYWMNWVRQAPGQGLEWIGMIHPLDAEIRANQKFRDRVTITVDTSTSTAYLELSSLRSEDTAVYYCARGTYDGGFEYWGQGTLVTVSS VL: DIVMTQSPDSLAVSLGERATINCRASQSVSGSRFTYMHWYQQKPGQPPKLLIKYASILESGVPDRFSGSGSGTDFTLTISSLQAEDVAVYYCQHSWEIPPWTFGQGTKVEIKR |  | 3 |  |
| hu7C2.v2.2 (antibody, V domains shown, Expressed as IgG; It is the parent of hu7C2.v2.2.LA, which adds S53L and S55A in HVR-H2) VH: EVQLVQSGAEVKKPGASVKVSCKASGYSFTGYWMNWVRQAPGQGLEWIGMIHPSDSEIRANQKFRDRVTITVDTSTSTAYLELSSLRSEDTAVYYCARGTYDGGFEYWGQGTLVTVSS VL: DIVMTQSPDSLAVSLGERATINCRASQSVSGSRFTYMHWYQQKPGQPPKLLIKYASILESGVPDRFSGSGSGTDFTLTISSLQAEDVAVYYCQHSWEIPPWTFGQGTKVEIK | 11 | 11 |  |
| 7C2.v3.1 (antibody, V domains shown, Expressed as IgG) VH: EVQLVQSGAEVKKPGASVKVSCKASGYSFTGYWMNWVRQAPGQGLEWIGMIHPSDSEIRANQKFRDRVTITRDTSTSTAYLELSSLRSEDTAVYYCARGTYDGGFEYWGQGTLVTVSS VL: DIVLTQSPDSLAVSLGERATINCRASQSVSGSRFTYMHWYQQKPGQPPKLLIKYASILESGVPDRFSGSGSGTDFTLTISSLQAEDVAVYYCQHSWEIPPWTFGQGTKVEIK | 15 |  |  |
| mu7C2.B9 (antibody, V domains shown, Assessed as IgG by SPR on an anti-human IgG (Fc) capture chip; also called murine 7C2.B9; chimeric mu7C2.B9) VH: QVQLQQPGAELVRPGASVKLSCKASGYSFTGYWMNWLKQRPGQGLEWIGMIHPSDSEIRANQKFRDKATLTVDKSSTTAYMQLSSPTSEDSAVYYCARGTYDGGFEYWGQGTTLTVSS VL: DIVLTQSPASLVVSLGQRATISCRASQSVSGSRFTYMHWYQQKPGQPPKLLIKYASILESGVPARFSGGGSGTDFTLNIHPVEEDDTATYYCQHSWEIPPWTFGGGTKLEIK |  | 8 |  |

From patent publication US20230041134A1 (Genentech, published 2023)
